Source: publication PMC2819549
pKd: −log10 of the molar value. Where two headings read alike, the source gives them in different places.

What was measured:
[1] = target: human cytochrome P450 3A4 (CYP3A4), wild type, His-tagged (human) (UniProt P08684); test: UV-Vis absorbance
[2] = target: human cytochrome P450 3A4 (CYP3A4), wild type, His-tagged (human) (UniProt P08684)
[3] = target: human cytochrome P450 3A4 (CYP3A4), wild type, His-tagged (human) (UniProt P08684); test: UV-Vis absorbance; remark: listed apart in the source
[4] = target: human cytochrome P450 3A4 (CYP3A4), wild type, His-tagged (human) (UniProt P08684); test: UV-Vis absorbance; remark: listed apart in the source

Question: “flavin domain of cytochrome P450BM-3 from Bacillus megaterium (BMR) (domain or fragment)” was tested. Which pKd [1] did it give?
Answer: 6.85

Question: And the stoichiometry N [1]?
Answer: 1

Question: What about the total reducibility of CYP3A4 by BMR; CYP3A4-ND, with 1-PB [2] of the same substance?
Answer: 91%

Question: And the total reducibility of CYP3A4 by BMR; CYP3A4-ND, with ANF [2]?
Answer: 79%

Question: And the total reducibility of CYP3A4 by BMR; proteoliposomes LPS-76, no substrate [2]?
Answer: 55%

Question: And the total reducibility of CYP3A4 by BMR; proteoliposomes LPS-76, with ANF [2]?
Answer: 47%

Question: What about the total reducibility of CYP3A4 by BMR; proteoliposomes LPS-910, no substrate [2] of the same substance?
Answer: 83%

Question: And the total reducibility of CYP3A4 by BMR; proteoliposomes LPS-910, with ANF [2]?
Answer: 85%

Question: And the pKd [3]?
Answer: 7.00

Question: And the stoichiometry N [4]?
Answer: 1
